Assay results from patent publication US8552157B2, “c-Kit antibodies and uses thereof” (ImClone LLC, priority 2011, dated 2013).

Legend:
[1] = test system: MALM-3M human melanoma cell line xenograft; experiment: Xenograft tumor growth inhibition, MALM-3M; format: in vivo, athymic nude mice
Protocol: Briefly described, c-Kit-dependent human cancer cell lines are expanded in culture and then are injected subcutaneously into the rear flank of athymic nude mice (Charles River, Wilmington, Mass.) with 2-10 million cells per mouse. Anti-c-Kit mAbs are diluted in PBS, pH 7.2, and administered by intravenous injection at 4 or 40 mg/kg. […] Furthermore, treatment groups may include appropriate chemotherapy drugs or approved RTK inhibitors alone or in combination with the antibodies of the present invention. Antibodies and saline control are administered three times per week for four weeks Inhibition of tumor cell growth is determined by three dimensional caliper measurement of tumor volume twice weekly during the course of treatment. Tumor volume may be calculated as follows: Tumor volume(mm^3)=(length of the tumor)(width^2 of the tumor)(π/6), where the length of the tumor is the largest dimension of the tumor parallel to the skin surface and the width is the largest measurement perpendicular to the length, parallel to the skin surface. Body weight may also be measured frequently during the course of treatment as a general measurement of toxicity. T/C %, and P values are calculated by RM ANOVA where, T/C %=[(Treatment Volume/Initial Volume)/(Control Volume/Initial Volume)]*100 and the P value is calculated in relation to saline.

c-Kit in GIST882 cells = biological target: T1, c-Kit in GIST882 cells (Homo sapiens, UniProt P10721, K642E); experiment: In vitro c-Kit degradation assay (Example 7, western blot), GIST882; format: cell-based; conditions: SCF 100 ng/ml, 12, 24, and 48 hours at 37° C., data not shown
T1 construct: endogenous in cells; host or cells: GIST882 (human gastrointestinal stromal tumor)
T1 sequence (P10721 26-976 K642E): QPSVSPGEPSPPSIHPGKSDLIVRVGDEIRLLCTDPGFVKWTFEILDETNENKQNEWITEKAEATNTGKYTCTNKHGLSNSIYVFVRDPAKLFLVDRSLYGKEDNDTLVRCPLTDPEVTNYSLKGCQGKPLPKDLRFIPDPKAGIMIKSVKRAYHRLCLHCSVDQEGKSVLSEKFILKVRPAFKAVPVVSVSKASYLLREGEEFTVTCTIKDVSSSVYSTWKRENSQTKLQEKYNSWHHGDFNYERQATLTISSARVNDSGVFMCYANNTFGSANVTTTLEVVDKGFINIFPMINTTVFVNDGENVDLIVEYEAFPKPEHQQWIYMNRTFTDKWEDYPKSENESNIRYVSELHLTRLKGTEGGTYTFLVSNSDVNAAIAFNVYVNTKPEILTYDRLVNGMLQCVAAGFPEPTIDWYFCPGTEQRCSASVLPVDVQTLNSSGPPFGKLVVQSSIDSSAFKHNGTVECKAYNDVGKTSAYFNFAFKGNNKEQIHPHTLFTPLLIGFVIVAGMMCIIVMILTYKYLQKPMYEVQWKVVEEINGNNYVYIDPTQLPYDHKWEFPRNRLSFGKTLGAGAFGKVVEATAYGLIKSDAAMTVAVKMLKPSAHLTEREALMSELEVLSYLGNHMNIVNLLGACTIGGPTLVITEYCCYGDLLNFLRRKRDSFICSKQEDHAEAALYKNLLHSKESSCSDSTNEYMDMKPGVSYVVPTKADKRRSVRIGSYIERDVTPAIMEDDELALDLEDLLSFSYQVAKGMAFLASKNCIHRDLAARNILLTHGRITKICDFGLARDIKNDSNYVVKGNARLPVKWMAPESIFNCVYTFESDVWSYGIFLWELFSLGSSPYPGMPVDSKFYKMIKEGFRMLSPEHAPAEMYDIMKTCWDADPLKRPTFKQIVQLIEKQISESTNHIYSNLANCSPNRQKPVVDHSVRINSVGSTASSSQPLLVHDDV

c-Kit in Mo7e cells [2] = biological target: T2, c-Kit in Mo7e cells (Homo sapiens, UniProt P10721); experiment: In vitro c-Kit degradation assay (Example 7, western blot), Mo7e; format: cell-based; conditions: SCF 100 ng/ml, 12, 24, and 48 hours at 37° C., data not shown
T2 construct: endogenous in cells; host or cells: Mo7e (human megakaryocytic leukemia)
T2 sequence (P10721 26-976): as the sequence (P10721 26-976 K642E) above, with E617K counted along it
Protocol: An in vitro cell based assay may be used to measure the ability of c-Kit mAbs to induce degradation of c-Kit as measured by the amount of total c-Kit found in cell lysates after treating tumor cells with a c-Kit mAb at 37° C. Briefly, human cell lines expressing c-Kit (e.g., Mo7e and GIST882) are plated in a 6-well dish at a density of 3×10^6 cells/ml in 3 ml of serum-free media. […] One well of cells is left untreated as a control. Immediately after the treatment period, the cells are washed in cold PBS, lysed in 100 μl lysis buffer (50 mM Hepes pH 7.5, 150 mM NaCl, 10 mM NaPPi, 50 mM NaF, 1 mM Na3VO4, 1% Triton X-100, protease inhibitor cocktail). After a ten minute incubation on ice, the cells are centrifuged at 12,000 g for 15 minutes at 4° C. The supernatant is collected and subjected to western blot analysis under reducing conditions. […] As expected from previous reports in the scientific literature,
degradation of c-Kit was not observed after treatment of the tumor cells with SCF (100 ng/ml) for 12, 24, and 48 hours at 37° C. (data not shown).

c-Kit in Mo7e cells [3] = biological target: T2, c-Kit in Mo7e cells; experiment: In vitro c-Kit degradation assay (Example 7a, western blot), Mo7e; format: cell-based
Protocol: Human cell lines expressing c-Kit (e.g., GIST882, Mo7e, and Malm-3M) are plated in a 6-well dish at a density of 3×10^6 cells/ml in 3 ml of serum-free media for all but one Mo7e assay that uses 10% serum. […] One well of cells is left untreated as a control. Immediately after the treatment period, the cells are washed in cold PBS, lysed in 100 μl lysis buffer (50 mM Hepes pH 7.5, 150 mM NaCl, 10 mM NaPPi, 50 mM NaF, 1 mM Na3VO4, 1% Triton X-100, protease inhibitor cocktail). After a ten minute incubation on ice, the cells are centrifuged at 12,000 g for 15 minutes at 4° C. The supernatant is collected and subjected to western blot analysis under reducing conditions. […] SCF induced degradation is not apparent when using 10% serum. (Replicates of GIST882=1, Mo7e=3, and Malm-3M=1).

CN(C)/N=N/c1[nH]cnc1C(N)=O [DTIC, dacarbazine, reference compound]
T/C % ([1]; Table 13 upper part, DTIC 80 mg/kg, P value 0.0021): 68%

SCF: c-Kit ligand stem cell factor (SCF) [reference compound]
degradation of c-Kit, in words (c-Kit in GIST882 cells): not observed | degradation of c-Kit, in words (c-Kit in Mo7e cells [2]): not observed | degradation of c-Kit, in words (c-Kit in Mo7e cells [3]; SCF 1 ug/ml and 100 ng/ml, 24 hours at 37° C., 0% serum): Degradation of c-Kit is observed | degradation of c-Kit, in words (c-Kit in Mo7e cells [3]; SCF, 10% serum): not apparent

CCN(CC)CCNC(=O)c1c(C)[nH]c(/C=C2\C(=O)Nc3ccc(F)cc32)c1C [Sunitinib, sunitinib, reference compound]
T/C % ([1]; Table 13 lower part, Sunitinib 40 mg/kg, P value 0.0004): 68%

Cc1ccc(NC(=O)c2ccc(CN3CCN(C)CC3)cc2)cc1Nc1nccc(-c2cccnc2)n1 [Imatinib, imatinib, reference compound]
T/C % ([1]; Table 13 lower part, Imatinib 100 mg/kg, P value 0.0001): 61%
